Test results published in patent publication US9151744B2, “Lung tissue model” (Pécsi Tudományegyetem, priority 2009, dated 2015).

Tests used:
[1] = test system: SAEC-NHLF lung micro-tissue; assay: Wnt11 SN treatment of 3D lung micro-tissue: haematoxilin-eosin morphology; type: cell-based, human; settings: 3D micro-tissue, 72 hours, vs control A549 SN
Method: (§1) Primary SAEC, NHLF and pulmonary HMVEC cells were purchased from Lonza. All cell types were isolated from the lungs of multiple random donors of different sexes and ages. We used SAGM, FGM or EGM-2 medium for the initial expansion of SAEC, NHLF or pulmonary HMVEC, respectively, as recommended by the manufacturer. All types of cell cultures were incubated in an atmosphere containing 5% CO2, at 37° C. For 2D and 3D culturing, pure or mixed cell populations were cultured in a 50-50% mixture of SAGM (Small Airway Growth Medium, Lonza) and complete DMEM. For two and three-cell cultures containing HMVEC cells, the appropriate growth factor supplements for HMVEC cells were added to the 50-50% mixture of SAGM and DMEM. The compositions of cell culture media were prepared in accordance with instructions of the manufacturer. For 2D and 3D culturing, cells were mixed at the indicated ratios and dispensed onto flat-bottom 6 well plates or 96-well V-bottom plates (Sarstedt), respectively. V-bottom plates were immediately centrifuged after cell seeding at 600×g for 10 minutes at room temperature.
Retroviral infection. Retroviral supernatants were generated from retroviral vectors containing Wnt11-GFP, or green fluorescence protein (GFP) only, in 293 cells. […]

[2] = test system: SAEC-NHLF lung micro-tissue; assay: Wnt11 treatment of 3D SAEC-NHLF lung micro-tissue: marker expression (qRT-PCR, PCR, immunofluorescence); type: cell-based, human; settings: for AQP3 expression / E-cadherin expression / N-cadherin expression (EMT marker) / S100A4 expression (EMT marker) / SLUG expression (EMT marker): 3D cultures, Wnt11 SN vs control SN, mRNA in sorted lung epithelium; for pro-SFTPC protein expression: immunofluorescence, 3D micro-tissue, 72 hours, vs control SN
Method: as §1
SAEC and NHLF were stained with CFSE and DiI according to manufacturers instructions (Molecular probes). Cells were mixed and cultured for 72 hours in 2D and 3D systems. Stained cells were dissociated by mild trypsin treatment followed by PBS+EDTA treatment. Dissociated cells were sorted using a BD FACSVantage cell sorter into tubes with lysis buffer for mRNA preparation (Miltenyi Biotech).
After culturing cells in 3D for 3 days, micro-tissues were carefully removed from the V-bottom plates and fixed in 4% formaline for 10 minutes at room temperature. Fixed samples were covered with TissueTech cryostate embedding medium and 8 μm thick frozen sections were made. Sections were permeabilized in PBS buffer containing 0.1% saponine and 5% BSA for 30 minutes. Primary and secondary antibodies were diluted in the same buffer and incubated with the samples for 1-1 hour. Fluorescent images were acquired using an Olympus IX-81 fluorescent microscope. To ensure the comparability of expression levels of SFTPC, AQP3 and N-cad in Wnt11-SN— or Wnt11 siRNA-treated samples to their matched untreated controls, all images were captured with the same exposition settings.
Retroviral infection. Retroviral supernatants were generated from retroviral vectors containing Wnt11-GFP, or green fluorescence protein (GFP) only, in 293 cells. Epithelial cell line A549 was transformed using the above viruses in 24-well-plates, in 250 μl of viral supernatant and 50 μl of DMEM polybrene mix (final conc.: 8 μg/ml)/well, and then centrifuged for 60 min at 2100 rpm at room temperature. The cells were incubated for 3 days in fresh DMEM containing 10% FCS, then sorted based on GFP expression using FACSVantage cell sorter (BD Biosciences). GFP positive cells were then cultured as described above. The presence of Wnt11 protein were verified by immunoblotting and immunofluorescence using Wnt11 specific polyclonal antibody (AbCam) (FIG. 7).
All samples were set up in duplicates. Briefly, Ct values were determined for each sample using an automatic threshold level determined by the 7500 System SDS Software. Delta Ct (dCt) values were determined according to the following formula: dCt(target gene)=Ct(target gene)−Ct(housekeeping gene). Changes in gene expression are shown as RQ values calculated using the next formula: RQ=2^−ddCt, where ddCt values were calculated as ddCt=dCt(sample)−dCt(reference sample).

B1: Wnt11: Wnt11 protein, applied as supernatant (SN) of A549 cells transfected with lentiviral full-length Wnt11-IRES-GFP construct (protein, UniProt O96014 1-354, looked up)
chain: MRARPQVCEALLFALALQTGVCYGIKWLALSKTPSALALNQTQHCKQLEGLVSAQVQLCRSNLELMHTVVHAAREVMKACRRAFADMRWNCSSIELAPNYLLDLERGTRESAFVYALSAAAISHAIARACTSGDLPGCSCGPVPGEPPGPGNRWGGCADNLSYGLLMGAKFSDAPMKVKKTGSQANKLMRLHNSEVGRQALRASLEMKCKCHGVSGSCSIRTCWKGLQELQDVAADLKTRYLSATKVVHRPMGTRKHLVPKDLDIRPVKDSELVYLQSSPDFCMKNEKVGSHGTQDRQCNKTSNGSDSCDLMCCGRGYNPYTDRVVERCHCKYHWCCYVTCRRCERTVERYVCK
modifications: full-length
notes: Wnt11 protein, applied as supernatant (SN) of A549 cells transfected with lentiviral full-length Wnt11-IRES-GFP construct
epithelial cell morphology (HE staining) [1]: increased number of cells with cuboid-like morphology
AQP3 expression [2]: up-regulation
E-cadherin expression [2]: up-regulation
N-cadherin expression (EMT marker) [2]: down-regulation
S100A4 expression (EMT marker) [2]: down-regulation
SLUG expression (EMT marker) [2]: down-regulation
AQP3 expression ([2]; listed as Wnt11 SN): increased
E-cadherin expression ([2]; listed as Wnt11 SN): increased
N-cadherin expression (EMT marker) ([2]; listed as Wnt11 SN): decreased
S100A4 expression (EMT marker) ([2]; listed as Wnt11 SN): decreased
SLUG expression (EMT marker) ([2]; listed as Wnt11 SN): decreased
SFTPA mRNA levels ([2]; PCR, Wnt11 treated cultures vs untreated control): significant increase
surfactant expression (ATII type differentiation of alveolar epithelium) ([2]; all studied culture conditions, in the presence of fibroblasts): drastic boost
pro-SFTPC protein expression [2]: radical increase
pro-SFTPC protein expression ([2]; listed as Wnt11 SN): dramatic increase
